Experiments:
Nsp3 Ubl1 (SARS-CoV-2) = Nsp3 Ubl1 (SARS-CoV-2) (UniProt P0DTD1); experiment: fluorescence polarisation
[1] = biological target: FITC-PRDM14_(197–213) (human); experiment: fluorescence polarisation

Row | Substance | fold lower affinity than NCOA2 (1074–1089) (Nsp3 Ubl1 (SARS-CoV-2)) [fold] | fold reduction of affinity against wild-type Nsp3 SUD-M [1] [fold]
1 | Y to V mutant of the NCOA2_(1074–1089) peptide (from UniProt Q15596 1074-1089) | 20 | 
2 | Nsp3 SUD-M A1397E, V1453K, S1478D (from UniProt P0DTD1 819-2763) (domain or fragment) |  | 100

— PMC10499821
